Among the data in publication PMC12592476 (2025) are Kd values, retold here.

The target in assay [1] is T1, F-actin (rabbit skeletal α-actin, polymerized) (rabbit, UniProt P68135 1-377). The assay can be described thus: ADP-F-actin.
In assay [2] the target is T1, F-actin (rabbit skeletal α-actin, …). The assay can be described thus: ADP-BeF3- F-actin.
The target is the same in assay [3]. Kind of assay: ADP-F-actin (- BeF3-).
For assay [4], the target named is T2, bovine brain Arp2/3 complex (bovine, UniProt P61157 1-418; A7MB62 1-394; Q58CQ2 1-372; Q3MHR7 1-300; Q3T035 1-178; Q148J6 …). Kind of assay: ITC; ATP-bound Arp2/3 complex. For orientation: ITC needs no label: the signal is the heat of the interaction.
The target in assay [5] is T2, bovine brain Arp2/3 complex. The assay can be described thus: ITC; ADP-bound Arp2/3 complex.

A word on the Kd: it is the equilibrium constant for the complex coming apart.

B1: human Coro7 β1β2 (domain or fragment)
chain: MNRFRVSKFRHTEARPPRRESWISDIRAGTAPSCRNHIKSSCSLIAFNSDRPGVLGIVPLQGQGEDKRRVAHLGCHSDLVTDLDFSPFDDFLLATGSADRTVKLWRLPGPGQALPSAPGVVLGPEDLPVEVLQFHPTSDGILVSAAGTTVKVWDAAKQQPLTELAAHGDLVQSAVWSRDGALVGTACKDKQLRIFDPRTKPRASQSTQAHENSRDSRLAWMGTWEHLVSTGFNQMREREVKLWDTRFFSSALASLTLDTSLGCLVPLLDPDSGLLVLAGKGERQLYCYEVVPQQPALSPVTQCVLESVLRGAALVPRQALAVMSCEVLRVLQLSDTAIVPIGYHVPRKAVEFHEDLFPDTAGCVPATDPHSWWAGDNQQVQKVSLNPACRPHPSFTSCLVPPAEPLPDTAQPAVMETPVGDADASEGFSSPPSSLTSPSTPSSLGPSLSSTSGIGTSPSLRSLQSLLGPSSKFRHAQGTVLHRDSHITNLKGLNLTTPGESDGFCANKLRVAVPLLSSGGQVAVLELRKPGRLPDTALPTLQNGAAVTDLAWDPFDPHRLAVAGEDARIRLWRVPAEGLEEVLTTPETVLTGHTEKICSLRFHPLAANVLASSSYDLTVRIWDLQAGADRLKLQGHQDQIFSLAWSPDGQQLATVCKDGRVRVYRPRSGPEPLQEGPGPKGGRGARIVWVCDGRCLLVSGFDSQSERQLLLYEAEALAGGPLAVLGLDVAPSTLLPSYDPDTGLVLLTGKGDTRVFLYELLPESPFFLECNSFTSPDPHKGLVLLPKTECDVREVELMRCLRLRQSSLEPVAFRLPRVRKEFFQDDVFPDTAVIWEPVLSAEAWLQGANGQPWLLSLQPPDMS
B1: the Kd in assay [1] was 5.2 µM.

B2: human Coro7 β2 (domain or fragment)
chain: KFRHAQGTVLHRDSHITNLKGLNLTTPGESDGFCANKLRVAVPLLSSGGQVAVLELRKPGRLPDTALPTLQNGAAVTDLAWDPFDPHRLAVAGEDARIRLWRVPAEGLEEVLTTPETVLTGHTEKICSLRFHPLAANVLASSSYDLTVRIWDLQAGADRLKLQGHQDQIFSLAWSPDGQQLATVCKDGRVRVYRPRSGPEPLQEGPGPKGGRGARIVWVCDGRCLLVSGFDSQSERQLLLYEAEALAGGPLAVLGLDVAPSTLLPSYDPDTGLVLLTGKGDTRVFLYELLPESPFFLECNSFTSPDPHKGLVLLPKTECDVREVELMRCLRLRQSSLEPVAFRLPRVRKEFFQDDVFPDTAVIWEPVLSAEAWLQGANGQPWLLSLQPPDMS
In turn, B2 yielded a Kd in assay [1] of 11 µM.

B3: human Coro7 full length (Coro7 FL) (natural protein)
chain: MNRFRVSKFRHTEARPPRRESWISDIRAGTAPSCRNHIKSSCSLIAFNSDRPGVLGIVPLQGQGEDKRRVAHLGCHSDLVTDLDFSPFDDFLLATGSADRTVKLWRLPGPGQALPSAPGVVLGPEDLPVEVLQFHPTSDGILVSAAGTTVKVWDAAKQQPLTELAAHGDLVQSAVWSRDGALVGTACKDKQLRIFDPRTKPRASQSTQAHENSRDSRLAWMGTWEHLVSTGFNQMREREVKLWDTRFFSSALASLTLDTSLGCLVPLLDPDSGLLVLAGKGERQLYCYEVVPQQPALSPVTQCVLESVLRGAALVPRQALAVMSCEVLRVLQLSDTAIVPIGYHVPRKAVEFHEDLFPDTAGCVPATDPHSWWAGDNQQVQKVSLNPACRPHPSFTSCLVPPAEPLPDTAQPAVMETPVGDADASEGFSSPPSSLTSPSTPSSLGPSLSSTSGIGTSPSLRSLQSLLGPSSKFRHAQGTVLHRDSHITNLKGLNLTTPGESDGFCANKLRVAVPLLSSGGQVAVLELRKPGRLPDTALPTLQNGAAVTDLAWDPFDPHRLAVAGEDARIRLWRVPAEGLEEVLTTPETVLTGHTEKICSLRFHPLAANVLASSSYDLTVRIWDLQAGADRLKLQGHQDQIFSLAWSPDGQQLATVCKDGRVRVYRPRSGPEPLQEGPGPKGGRGARIVWVCDGRCLLVSGFDSQSERQLLLYEAEALAGGPLAVLGLDVAPSTLLPSYDPDTGLVLLTGKGDTRVFLYELLPESPFFLECNSFTSPDPHKGLVLLPKTECDVREVELMRCLRLRQSSLEPVAFRLPRVRKEFFQDDVFPDTAVIWEPVLSAEAWLQGANGQPWLLSLQPPDMSPVSQAPREAPARRAPSSAQYLEEKSDQQKKEELLNAMVAKLGNREDPLPQDSFEGVDEDEWD
In the case of B3, the Kd in assay [1] was 9.9 µM; in assay [2], 37.4 µM; in assay [3], 9.9 µM.

With SDQQKKEELLNAMVAKLGNREDPLPQDSFEGVDEDEWD (domain or fragment) [human Coro7 CA (C-terminal Central-Acidic region of coronin 7)], the results for the Kd in assay [4] and in assay [5] were 1.9 µM and 0.9 µM, respectively.

B4: human Coro7 β1 (domain or fragment)
chain: MNRFRVSKFRHTEARPPRRESWISDIRAGTAPSCRNHIKSSCSLIAFNSDRPGVLGIVPLQGQGEDKRRVAHLGCHSDLVTDLDFSPFDDFLLATGSADRTVKLWRLPGPGQALPSAPGVVLGPEDLPVEVLQFHPTSDGILVSAAGTTVKVWDAAKQQPLTELAAHGDLVQSAVWSRDGALVGTACKDKQLRIFDPRTKPRASQSTQAHENSRDSRLAWMGTWEHLVSTGFNQMREREVKLWDTRFFSSALASLTLDTSLGCLVPLLDPDSGLLVLAGKGERQLYCYEVVPQQPALSPVTQCVLESVLRGAALVPRQALAVMSCEVLRVLQLSDTAIVPIGYHVPRKAVEFHEDLFPDTAGCVPATDPHSWWAGDNQQVQKVSLNPACRPHPSFTSCLV
For B4, binding in assay [1] was characterised by a dissociation constant (Kd) of 5.5 µM. That is a single-digit micromolar value.
